Laboratory results: PMC10863865 (PLOS Pathogens, 2024)

B1: Gc13 monoclonal antibody (antibody, V domains shown)
VH: QVQLQQSGPEVVRPGVSVKISCKGSGYTFTDYATHWVKQSHVKSLEWIGVISTYNGETDCNQKFKGKATMTVDKSSSTAYMELARLTSEDSAIYYCANGYYQAMDYWGQGTSVTVSS
VL: DIQMTQTPSSLSASLGDRVTISCRASQDISNYLNWYQQRPDGTLKLLIYYTSRLHSGVPSRFSGSGSGTDYSLTISNLEQEDIATYFCQQGSTLPWTFGGGTKLEIK
notes: also called mAb Gc13; copies: 2 + 2
B2: Gc8 monoclonal antibody (antibody, V domains shown)
VH: QVQLQQPGAEVVKPGASVKMSCKASGYTFTSYSMHWVKQTPGQGLEWIGAIYPGNGDTSYNQKFKGKATLTADKSSSTAYMQLSSLTSEDSAGYYCARGDQYYGYFDFWGQGTTLTVSS
VL: DIQMTQSPASLSASVGETVTITCRTSENIYSFLAWYQQKQGKSPQRLVSHAKALAEGVPSRFSGSGTGTQFSLKINSLQPEDFGSYYCQHHYGIPLTFGAGTKLELK
notes: also called mAb Gc8; copies: 2 + 2

Experiments:
[1] = biological target: Gc protein in CCHFV-YL16070-infected Vero E6 cells (Crimean-Congo hemorrhagic fever virus, …, strain); assay: western blot; settings: one partner purified
[2] = biological target: T1, sGc-S-tag (Gc ectodomain of CCHFV-YL16070 with an S-tag) (Crimean-Congo hemorrhagic fever virus, …, strain, biotin (labelled for BLI)); assay: BLI; […] (25 ug/mL), […]; PBS with 0.1% BSA and 0.02% Tween-20; association 600 s, dissociation 600 s; Octet-Red 96; settings: both partners purified
T1 construct: not shown: S-tag, N-terminal, kept

Binder	binding result [1]	Kd [2]
B1	binds	0.0324 nM
B2	binds	0.0834 nM
